Measurements: US12383631
Where a chain is given by its changes, count along the chain named. In names and notes the source's numbering stands.

T1: IL-18 receptor (IL-18Rα/IL-18Rβ) on cells (HEK-Blue IL18R reporter cells, NK-92, KG-1) (human) (UniProt Q13478)
T1 sequence (looked up) 1: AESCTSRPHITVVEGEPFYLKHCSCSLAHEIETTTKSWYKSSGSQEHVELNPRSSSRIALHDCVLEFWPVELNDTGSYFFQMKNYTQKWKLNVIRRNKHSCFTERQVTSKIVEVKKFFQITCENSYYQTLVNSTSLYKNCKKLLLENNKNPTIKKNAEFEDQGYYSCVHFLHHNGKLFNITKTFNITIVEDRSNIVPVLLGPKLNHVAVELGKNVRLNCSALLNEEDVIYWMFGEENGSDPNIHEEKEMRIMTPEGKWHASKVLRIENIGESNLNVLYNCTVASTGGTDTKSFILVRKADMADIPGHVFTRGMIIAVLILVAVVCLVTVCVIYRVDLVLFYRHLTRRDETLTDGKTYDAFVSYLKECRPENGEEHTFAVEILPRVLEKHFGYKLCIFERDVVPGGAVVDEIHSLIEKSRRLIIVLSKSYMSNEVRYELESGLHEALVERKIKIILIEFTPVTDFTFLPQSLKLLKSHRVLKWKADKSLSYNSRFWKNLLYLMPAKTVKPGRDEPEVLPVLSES
T1 sequence (looked up) 2: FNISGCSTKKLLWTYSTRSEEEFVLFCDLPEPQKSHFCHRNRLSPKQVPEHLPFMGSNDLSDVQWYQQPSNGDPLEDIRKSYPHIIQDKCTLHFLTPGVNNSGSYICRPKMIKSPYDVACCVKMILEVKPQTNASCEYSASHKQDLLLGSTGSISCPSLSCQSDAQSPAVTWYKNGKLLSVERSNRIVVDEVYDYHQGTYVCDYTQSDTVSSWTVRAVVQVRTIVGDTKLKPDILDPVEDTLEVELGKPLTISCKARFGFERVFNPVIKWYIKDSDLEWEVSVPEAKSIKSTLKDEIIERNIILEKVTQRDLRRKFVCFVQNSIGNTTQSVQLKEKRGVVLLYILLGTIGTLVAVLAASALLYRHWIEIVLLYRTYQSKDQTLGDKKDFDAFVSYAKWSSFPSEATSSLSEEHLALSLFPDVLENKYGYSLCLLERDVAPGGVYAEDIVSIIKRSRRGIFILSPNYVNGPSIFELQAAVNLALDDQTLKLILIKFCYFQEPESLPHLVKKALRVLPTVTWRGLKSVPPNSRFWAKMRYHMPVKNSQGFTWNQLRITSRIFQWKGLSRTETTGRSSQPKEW

T2: human IL-18BP-His (human), O95998
T2 chain: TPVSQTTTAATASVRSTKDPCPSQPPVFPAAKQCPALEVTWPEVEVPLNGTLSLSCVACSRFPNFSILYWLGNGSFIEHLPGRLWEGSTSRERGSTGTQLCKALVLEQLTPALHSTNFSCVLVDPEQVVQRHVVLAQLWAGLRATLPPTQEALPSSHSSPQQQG

B1: Composition F (Trastuzumab/Herceptin conjugated to IL-18 polypeptide of SEQ ID NO: 60) (protein, part only; not given: trastuzumab heavy and light chains, part only)
chain: YFGKLKSKLSVIRNLNDQVLFIDQGNRPLFEDMTDSDQRDNAPRTIFIISMYADSQPRGMAVTISVKCEKISTLSCENKIISFKEMNPPDNIKDTKSDIIFFQRSVPGHDNKMQFESSSYEGYFLACEKERDLFKLILKKEDELGDRSIMFTVQNED
modifications: chemical linker to the antibody; site not stated
B2: IL-18 polypeptide of SEQ ID NO: 35 (Y01G, F02A, E06K, M51G, K53A, D54A, S55A, T63A), Q14116 37-193 (ligand)
chain: B1 chain with Y1G, F2A, Q38C, M51G, D54A, S55A, T63A

What was measured:
[1] = target: T1, IL-18 receptor (IL-18Rα/IL-18Rβ) on cells (HEK-Blue IL18R reporter cells, NK-92, KG-1) (human); assay: cell-based or functional assay
[2] = target: T2, human IL-18BP-His (human), O95998; assay: AlphaLISA of free IL-18BP; details: remark: other sources report otherwise

Binder | EC50, IFNγ secretion, NK92 cells [1] | Kd [2]
B1 | 0.064 nM | 
B2 |  | 969 nM
